Each sequence was assayed on Escherichia coli TOP10 (assay: shrunken log2 fold change of peptide-encoding DNA abundance (4.5 h post-induction vs induction); higher = less antimicrobial activity (less host growth inhibition)). Details: time post-induction: 4.5 h; library: site-saturation at positions 5, 18, 19, 20.
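Note: peptides expressed intracellularly from a pBAD plasmid library in pooled LB shake-flask culture, induced with 0.3% L-arabinose, DNA abundance read by NGS, three biological replicates, DESeq2 with apeglm shrinkage.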

RRIRNRPPRLPRPRPRPFIPPRP and RRIRRRPPRLPRPRPRPRAYPRP are within 0.2 log units of each other in “shrunken log2 fold change” value: -0.0923 for the first, -0.0105 for the second.

RRIRQRPPRLPRPRPRPDKMPRP and RRIRPRPPRLPRPRPRPTKFPRP are within 0.2 log units of each other in “shrunken log2 fold change” value: 0.021 for the first, -0.0516 for the second.

First: RRIRWRPPRLPRPRPRPFSGPRP
Second: RRIRIRPPRLPRPRPRPYNFPRP
The “shrunken log2 fold change” value of the first is higher: 0.0272 for the first, -0.99 for the second.

Going from RRIRVRPPRLPRPRPRPLDGPRP to RRIRWRPPRLPRPRPRPHLFPRP, the “shrunken log2 fold change” value rises from -0.267 to 0.0795.

Compared with RRIRYRPPRLPRPRPRPFDAPRP, RRIRTRPPRLPRPRPRPWTLPRP is higher in “shrunken log2 fold change” value: -0.485 for the first, -0.0728 for the second.

Compared with RRIRTRPPRLPRPRPRPARWPRP, RRIRIRPPRLPRPRPRPIMQPRP is lower in “shrunken log2 fold change” value: 0.471 for the first, -0.557 for the second.

Compared with RRIRARPPRLPRPRPRPICQPRP, RRIRPRPPRLPRPRPRPNDIPRP is lower in “shrunken log2 fold change” value: 0.216 for the first, -0.632 for the second.

First: RRIRSRPPRLPRPRPRPPWMPRP
Second: RRIRIRPPRLPRPRPRPVPEPRP
The “shrunken log2 fold change” value of the first is higher: 0.167 for the first, -0.138 for the second.

Compared with RRIRIRPPRLPRPRPRPCKVPRP, RRIRVRPPRLPRPRPRPICMPRP is higher in “shrunken log2 fold change” value: -0.513 for the first, -0.0265 for the second.

First: RRIRERPPRLPRPRPRPWKTPRP
Second: RRIRPRPPRLPRPRPRPIYKPRP
The “shrunken log2 fold change” value of the first is higher: 0.0324 for the first, -0.333 for the second.

RRIRARPPRLPRPRPRPMDMPRP and RRIRERPPRLPRPRPRPNEIPRP are within 0.2 log units of each other in “shrunken log2 fold change” value: -0.128 for the first, -0.181 for the second.

Compared with RRIRSRPPRLPRPRPRPDAFPRP, RRIRMRPPRLPRPRPRPMTWPRP is lower in “shrunken log2 fold change” value: 0.387 for the first, 0.0101 for the second.

Going from RRIRGRPPRLPRPRPRPAHYPRP to RRIRYRPPRLPRPRPRPGRFPRP, the “shrunken log2 fold change” value falls from 0.447 to -0.0548.

Compared with RRIRERPPRLPRPRPRPAKVPRP, RRIRCRPPRLPRPRPRPDIHPRP is lower in “shrunken log2 fold change” value: -0.182 for the first, -0.468 for the second.

First: RRIRWRPPRLPRPRPRPFVFPRP
Second: RRIRSRPPRLPRPRPRPGEVPRP
The “shrunken log2 fold change” value of the first is lower: -0.0764 for the first, 0.223 for the second.

Compared with RRIRYRPPRLPRPRPRPLFLPRP, RRIRSRPPRLPRPRPRPIWDPRP is higher in “shrunken log2 fold change” value: -0.171 for the first, 0.309 for the second.

First: RRIRARPPRLPRPRPRPTVCPRP
Second: RRIRYRPPRLPRPRPRPPKRPRP
The “shrunken log2 fold change” value of the first is higher: 0.505 for the first, -0.121 for the second.

First: RRIRTRPPRLPRPRPRPSFCPRP
Second: RRIRHRPPRLPRPRPRPQCCPRP
The “shrunken log2 fold change” value of the first is lower: -0.296 for the first, -0.00176 for the second.

RRIRERPPRLPRPRPRPNGGPRP and RRIRARPPRLPRPRPRPDTGPRP are within 0.2 log units of each other in “shrunken log2 fold change” value: -0.0469 for the first, -0.0932 for the second.

First: RRIRIRPPRLPRPRPRPINTPRP
Second: RRIRCRPPRLPRPRPRPLNHPRP
The “shrunken log2 fold change” value of the first is lower: -0.954 for the first, 0.519 for the second.

RRIRKRPPRLPRPRPRPCIHPRP and RRIRTRPPRLPRPRPRPQESPRP are within 0.2 log units of each other in “shrunken log2 fold change” value: -0.124 for the first, -0.0142 for the second.

Compared with RRIRSRPPRLPRPRPRPYHVPRP, RRIRCRPPRLPRPRPRPFMQPRP is higher in “shrunken log2 fold change” value: -1.09 for the first, -0.402 for the second.

RRIRSRPPRLPRPRPRPMKHPRP and RRIRERPPRLPRPRPRPQAAPRP are within 0.2 log units of each other in “shrunken log2 fold change” value: -0.212 for the first, -0.194 for the second.

First: RRIRKRPPRLPRPRPRPPRNPRP
Second: RRIRLRPPRLPRPRPRPKNEPRP
The “shrunken log2 fold change” value of the first is higher: 0.671 for the first, -0.198 for the second.

Compared with RRIRMRPPRLPRPRPRPETMPRP, RRIRQRPPRLPRPRPRPFMKPRP is lower in “shrunken log2 fold change” value: 3.17 for the first, -0.0158 for the second.

First: RRIRDRPPRLPRPRPRPCHIPRP
Second: RRIRHRPPRLPRPRPRPNDCPRP
The “shrunken log2 fold change” value of the first is lower: -0.251 for the first, 0.000576 for the second.

RRIRRRPPRLPRPRPRPCTWPRP and RRIRHRPPRLPRPRPRPCGAPRP are within 0.2 log units of each other in “shrunken log2 fold change” value: -0.0877 for the first, 0.0817 for the second.

Compared with RRIRPRPPRLPRPRPRPGEDPRP, RRIRERPPRLPRPRPRPCFNPRP is lower in “shrunken log2 fold change” value: 0.461 for the first, -0.324 for the second.

RRIRPRPPRLPRPRPRPCGMPRP and RRIRPRPPRLPRPRPRPWVMPRP are within 0.2 log units of each other in “shrunken log2 fold change” value: 0.0189 for the first, 0.211 for the second.

First: RRIRMRPPRLPRPRPRPRYWPRP
Second: RRIRTRPPRLPRPRPRPIPNPRP
The “shrunken log2 fold change” value of the first is lower: -0.14 for the first, 0.0695 for the second.

Compared with RRIRKRPPRLPRPRPRPLDQPRP, RRIRNRPPRLPRPRPRPGGNPRP is lower in “shrunken log2 fold change” value: 0.257 for the first, -0.0331 for the second.

RRIRYRPPRLPRPRPRPCVNPRP and RRIRDRPPRLPRPRPRPFSQPRP are within 0.2 log units of each other in “shrunken log2 fold change” value: -0.177 for the first, -0.172 for the second.

Going from RRIRIRPPRLPRPRPRPQIWPRP to RRIRIRPPRLPRPRPRPGRSPRP, the “shrunken log2 fold change” value rises from -0.174 to 0.0764.

Compared with RRIRHRPPRLPRPRPRPTIVPRP, RRIRPRPPRLPRPRPRPSPDPRP is higher in “shrunken log2 fold change” value: -0.292 for the first, 0.146 for the second.

RRIRCRPPRLPRPRPRPMICPRP and RRIRPRPPRLPRPRPRPIHRPRP are within 0.2 log units of each other in “shrunken log2 fold change” value: -0.0738 for the first, -0.0135 for the second.

First: RRIRRRPPRLPRPRPRPWVVPRP
Second: RRIRARPPRLPRPRPRPCPRPRP
The “shrunken log2 fold change” value of the first is lower: -0.0166 for the first, 0.898 for the second.

Compared with RRIRARPPRLPRPRPRPAPQPRP, RRIRVRPPRLPRPRPRPMTKPRP is lower in “shrunken log2 fold change” value: 0.932 for the first, 0.0648 for the second.

Compared with RRIRVRPPRLPRPRPRPFENPRP, RRIRYRPPRLPRPRPRPEWNPRP is lower in “shrunken log2 fold change” value: -0.0486 for the first, -0.861 for the second.

Compared with RRIRRRPPRLPRPRPRPLASPRP, RRIRQRPPRLPRPRPRPPRSPRP is higher in “shrunken log2 fold change” value: 0.382 for the first, 0.601 for the second.

Going from RRIRSRPPRLPRPRPRPKVVPRP to RRIRERPPRLPRPRPRPIYKPRP, the “shrunken log2 fold change” value falls from 0.00912 to -0.305.

First: RRIRVRPPRLPRPRPRPQRQPRP
Second: RRIRVRPPRLPRPRPRPVCKPRP
The “shrunken log2 fold change” value of the first is higher: -0.207 for the first, -0.444 for the second.

Compared with RRIRARPPRLPRPRPRPYYHPRP, RRIRNRPPRLPRPRPRPRPTPRP is higher in “shrunken log2 fold change” value: -1.02 for the first, 0.658 for the second.

First: RRIRYRPPRLPRPRPRPQNWPRP
Second: RRIRSRPPRLPRPRPRPFHVPRP
The “shrunken log2 fold change” value of the first is lower: -0.611 for the first, -0.108 for the second.

RRIRGRPPRLPRPRPRPFPKPRP and RRIRYRPPRLPRPRPRPRQLPRP are within 0.2 log units of each other in “shrunken log2 fold change” value: 0.0687 for the first, -0.0472 for the second.

Compared with RRIRCRPPRLPRPRPRPRHEPRP, RRIRFRPPRLPRPRPRPHISPRP is lower in “shrunken log2 fold change” value: -0.117 for the first, -0.419 for the second.

RRIRHRPPRLPRPRPRPQLCPRP and RRIRMRPPRLPRPRPRPAEHPRP are within 0.2 log units of each other in “shrunken log2 fold change” value: 0.0716 for the first, -0.0575 for the second.

RRIRQRPPRLPRPRPRPCQSPRP and RRIRNRPPRLPRPRPRPTSLPRP are within 0.2 log units of each other in “shrunken log2 fold change” value: -0.0019 for the first, -0.0597 for the second.

Compared with RRIRGRPPRLPRPRPRPHWRPRP, RRIRVRPPRLPRPRPRPNGLPRP is lower in “shrunken log2 fold change” value: 0.203 for the first, -0.0536 for the second.

Compared with RRIRTRPPRLPRPRPRPEPGPRP, RRIRCRPPRLPRPRPRPPHFPRP is higher in “shrunken log2 fold change” value: 0.0826 for the first, 0.872 for the second.

RRIRPRPPRLPRPRPRPVACPRP and RRIRERPPRLPRPRPRPVCNPRP are within 0.2 log units of each other in “shrunken log2 fold change” value: -0.0233 for the first, -0.12 for the second.

First: RRIRSRPPRLPRPRPRPVRQPRP
Second: RRIRSRPPRLPRPRPRPSTHPRP
The “shrunken log2 fold change” value of the first is higher: 0.19 for the first, -0.353 for the second.

RRIRHRPPRLPRPRPRPASYPRP and RRIRQRPPRLPRPRPRPQMFPRP are within 0.2 log units of each other in “shrunken log2 fold change” value: -0.103 for the first, 0.00489 for the second.

Compared with RRIRTRPPRLPRPRPRPPPFPRP, RRIRARPPRLPRPRPRPRQMPRP is higher in “shrunken log2 fold change” value: 0.452 for the first, 1.2 for the second.

First: RRIRSRPPRLPRPRPRPESHPRP
Second: RRIRRRPPRLPRPRPRPLAIPRP
The “shrunken log2 fold change” value of the first is lower: -0.44 for the first, 0.0863 for the second.

First: RRIRYRPPRLPRPRPRPTTVPRP
Second: RRIRNRPPRLPRPRPRPPRTPRP
The “shrunken log2 fold change” value of the first is lower: -0.243 for the first, 0.59 for the second.

First: RRIRWRPPRLPRPRPRPKIDPRP
Second: RRIRERPPRLPRPRPRPNMIPRP
The “shrunken log2 fold change” value of the first is higher: 0.0747 for the first, -0.272 for the second.

First: RRIRGRPPRLPRPRPRPMTVPRP
Second: RRIRGRPPRLPRPRPRPTRNPRP
The “shrunken log2 fold change” value of the first is lower: 0.0506 for the first, 1.61 for the second.

Going from RRIRIRPPRLPRPRPRPMFHPRP to RRIRPRPPRLPRPRPRPVRWPRP, the “shrunken log2 fold change” value rises from -0.517 to 0.819.

RRIRSRPPRLPRPRPRPWDYPRP and RRIRSRPPRLPRPRPRPFQHPRP are within 0.2 log units of each other in “shrunken log2 fold change” value: 0.0318 for the first, -0.0131 for the second.

RRIRHRPPRLPRPRPRPKSKPRP and RRIRIRPPRLPRPRPRPEHTPRP are within 0.2 log units of each other in “shrunken log2 fold change” value: -0.598 for the first, -0.464 for the second.

RRIRMRPPRLPRPRPRPPSFPRP and RRIRERPPRLPRPRPRPRGFPRP are within 0.2 log units of each other in “shrunken log2 fold change” value: -0.0206 for the first, -0.0872 for the second.

RRIRERPPRLPRPRPRPHRQPRP and RRIRIRPPRLPRPRPRPMIVPRP are within 0.2 log units of each other in “shrunken log2 fold change” value: -0.0179 for the first, -0.0322 for the second.

RRIRHRPPRLPRPRPRPGSCPRP was tested, and the “shrunken log2 fold change” value was -0.108.

Reference: the supplement of paper PMC9112550, “Optimization of the antimicrobial peptide Bac7 by deep mutational scanning” (BMC Biology, 2022)
